Reference: patent US20220281962A1
pKd: −log10 of the molar value.

What was measured:
[1] = molecular target: recombinant CBP-HMGB1 (rat HMGB1 with a calmodulin-binding peptide tag) (rat) (UniProt P63159); assay: OpenSPR; HMGB1 immobilized on the chip, TN applied at 280, 93, 31 and 10 (no unit on the sheet) [A) upper panel]
[2] = molecular target: recombinant CBP-HMGB1 (rat HMGB1 with a calmodulin-binding peptide tag) (rat) (UniProt P63159); assay: OpenSPR; TN or HMGB1 on the chip (His-tag or carboxyl groups); this end taken as HMGB1 on chip, TN applied (inferred, since 2.88 nM is tied to the TN chip at paragraph 223)
[3] = molecular target: recombinant human tetranectin (TN), residue 22-202 with a C-terminal histidine tag (human) (UniProt P05452); assay: OpenSPR; TN chip, HMGB1 200 nM, without mAb8 pre-treatment
[4] = molecular target: recombinant human tetranectin (TN), residue 22-202 with a C-terminal histidine tag (human) (UniProt P05452); assay: OpenSPR; TN chip pre-treated with mAb8 (29.6 nM), HMGB1 200 nM
[5] = molecular target: recombinant human tetranectin (TN), residue 22-202 with a C-terminal histidine tag (human) (UniProt P05452); assay: OpenSPR; TN chip with against without mAb8 (29.6 nM) pre-treatment
[6] = molecular target: recombinant human tetranectin (TN), residue 22-202 with a C-terminal histidine tag (human) (UniProt P05452); assay: OpenSPR; TN on the chip, HMGB1 applied (FIG. 5A, Lower Panel, per paragraph 223)
[7] = molecular target: recombinant human tetranectin (TN), residue 22-202 with a C-terminal histidine tag (human) (UniProt P05452); assay: OpenSPR; TN chip pre-treated with mAb8 (29.6 nM), HMGB1 at various concentrations
[8] = molecular target: recombinant human tetranectin (TN), residue 22-202 with a C-terminal histidine tag (human) (UniProt P05452); assay: OpenSPR; TN immobilized on the chip, HMGB1 applied at 400, 200, 100 and 25 (no unit on the sheet) [A) lower panel]

Chain of recombinant CBP-HMGB1 (rat HMGB1 with a calmodulin-binding peptide tag) (rat) (P63159 whole entry, form in doubt): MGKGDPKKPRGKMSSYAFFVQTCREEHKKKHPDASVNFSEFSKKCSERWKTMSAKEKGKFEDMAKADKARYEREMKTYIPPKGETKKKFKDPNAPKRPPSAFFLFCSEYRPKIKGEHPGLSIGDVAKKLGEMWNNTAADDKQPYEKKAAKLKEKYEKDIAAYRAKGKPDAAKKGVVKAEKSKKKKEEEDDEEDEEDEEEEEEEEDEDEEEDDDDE

Row | Substance | pKd [1] | pKd [2] | SPR response signal [3] [AU] | SPR response signal [4] [AU] | fold increase of KD [5] [fold] | pKd [6] | pKd [7] | pKd [8]
1 | recombinant human tetranectin (TN), residue 22-202 with a C-terminal histidine tag (from UniProt P05452 22-202) | 8.92 | 8.54 to 8.92 |  |  |  |  |  | 
2 | recombinant CBP-HMGB1 (rat HMGB1 with a calmodulin-binding peptide tag) (from UniProt P63159 1-215) |  |  | 150 | 35 | 6 | 8.54 to 8.92 | 7.73 | 8.54
